Bounds are passed on as bounds.

Consider 4 molecules from patent US20170022281A1 (AbbVie / Abbott, published 2017).

The target in test [1] is T1, mouse PRLR on Baf3-mPRLR cells (mouse, UniProt Q08501 20-608).
T1 sequence (looked up): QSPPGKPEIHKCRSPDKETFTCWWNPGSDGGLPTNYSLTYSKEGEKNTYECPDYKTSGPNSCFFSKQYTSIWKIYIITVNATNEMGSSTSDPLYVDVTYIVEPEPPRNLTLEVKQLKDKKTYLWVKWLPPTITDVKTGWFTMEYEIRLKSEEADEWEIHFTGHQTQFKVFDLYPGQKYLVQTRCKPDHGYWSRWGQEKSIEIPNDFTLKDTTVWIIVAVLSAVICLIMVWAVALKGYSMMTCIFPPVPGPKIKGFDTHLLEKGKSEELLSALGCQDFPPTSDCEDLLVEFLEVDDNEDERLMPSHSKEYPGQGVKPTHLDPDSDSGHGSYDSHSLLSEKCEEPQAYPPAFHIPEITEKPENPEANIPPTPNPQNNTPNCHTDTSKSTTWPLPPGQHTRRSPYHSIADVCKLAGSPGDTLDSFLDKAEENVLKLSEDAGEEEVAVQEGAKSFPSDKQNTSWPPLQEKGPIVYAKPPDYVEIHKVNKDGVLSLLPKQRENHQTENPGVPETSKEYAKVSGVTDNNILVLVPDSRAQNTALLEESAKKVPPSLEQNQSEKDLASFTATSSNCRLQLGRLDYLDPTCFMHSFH
The test can be described thus: cell-based or functional assay.

The target of test [2] is T2, human PRLR on cells (human, UniProt P16471 25-622).
T2 sequence: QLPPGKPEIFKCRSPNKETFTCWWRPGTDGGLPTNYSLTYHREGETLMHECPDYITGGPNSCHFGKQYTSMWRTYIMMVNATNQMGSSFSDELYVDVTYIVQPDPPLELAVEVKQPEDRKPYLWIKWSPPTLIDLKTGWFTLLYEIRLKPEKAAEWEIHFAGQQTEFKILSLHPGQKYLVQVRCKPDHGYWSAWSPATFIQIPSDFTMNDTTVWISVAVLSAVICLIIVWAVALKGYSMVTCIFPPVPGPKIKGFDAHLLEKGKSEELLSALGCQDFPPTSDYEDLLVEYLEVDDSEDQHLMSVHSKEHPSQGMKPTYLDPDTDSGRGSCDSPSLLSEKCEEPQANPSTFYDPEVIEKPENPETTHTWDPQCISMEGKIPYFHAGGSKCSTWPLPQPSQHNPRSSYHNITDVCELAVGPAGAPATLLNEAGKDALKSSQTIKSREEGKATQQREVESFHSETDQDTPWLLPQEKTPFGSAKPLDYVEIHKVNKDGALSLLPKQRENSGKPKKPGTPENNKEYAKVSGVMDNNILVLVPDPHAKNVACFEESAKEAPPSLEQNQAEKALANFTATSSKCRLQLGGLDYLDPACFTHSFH
The test can be described thus: cell-based or functional assay.

Test [3] has as its target T3, human PRLR (Biacore antigen) (human, UniProt P16471 25-234, limits assumed).
T3 construct: The construct injected over captured antibody is not described (a soluble form is likely); also called huPRLR
T3 sequence: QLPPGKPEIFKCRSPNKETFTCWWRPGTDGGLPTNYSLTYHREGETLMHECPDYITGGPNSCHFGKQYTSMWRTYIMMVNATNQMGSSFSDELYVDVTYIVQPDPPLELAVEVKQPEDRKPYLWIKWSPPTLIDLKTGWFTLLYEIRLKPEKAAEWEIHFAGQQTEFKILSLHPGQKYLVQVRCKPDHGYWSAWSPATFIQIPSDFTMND
The test can be described thus: SPR Biacore. The gist of the method: (§1)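 Association rate, dissociation rate and dissociation constant were measured by surface plasmon resonance on a Biacore instrument. PRLR antigen was tested at 600 nM, 66.67 nM and 7.41 nM, a 3-point, 9-fold dilution series. Constants came from a 1:1 binding model fit (local Rmax, mass-transport term included) in Biacore T200 Evaluation Software.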
On the technique in general: In SPR one partner is held on a chip, and binding of the other changes the refractive index at the surface.

Test [4] deals with T4, murine PRLR (Biacore antigen) (murine, UniProt Q08501 20-229, limits assumed).
T4 construct: also called muPRLR
T4 sequence (looked up): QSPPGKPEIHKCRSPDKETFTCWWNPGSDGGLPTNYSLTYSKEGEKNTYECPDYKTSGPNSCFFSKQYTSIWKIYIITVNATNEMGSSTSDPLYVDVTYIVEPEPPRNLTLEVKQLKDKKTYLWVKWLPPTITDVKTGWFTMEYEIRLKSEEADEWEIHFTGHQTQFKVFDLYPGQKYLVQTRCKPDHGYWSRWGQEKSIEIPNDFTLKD
The test can be described thus: SPR Biacore. In outline:
as §1

The target in test [5] is T5, cyno PRLR (Biacore antigen) (cyno, UniProt A0A2K5WXK1 25-234).
T5 construct: also called cyPRLR
T5 sequence: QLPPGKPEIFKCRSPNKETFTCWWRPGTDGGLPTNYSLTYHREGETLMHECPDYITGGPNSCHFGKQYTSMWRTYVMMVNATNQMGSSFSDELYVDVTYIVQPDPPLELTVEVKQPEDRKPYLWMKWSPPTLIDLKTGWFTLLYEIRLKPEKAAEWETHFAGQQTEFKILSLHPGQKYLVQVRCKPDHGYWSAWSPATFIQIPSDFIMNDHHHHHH
The test can be described thus: SPR Biacore. The gist of the method:
as §1

Test [6] deals with T3, human PRLR (Biacore antigen). The test can be described thus: SPR simultaneous binding; PRLR held by surface mAb chAb6. How it is done:
(§2) Running buffer was HBS-EP+ (10 mM Hepes, pH7.4, 150 mM NaCl, 3 mM EDTA, 0.05% surfactant). Assay was performed at 12° C. using Biacore T200 and CM5 sensor chips with anti-human IgG (Pierce) amine-coupled in all 4 flow cells to ˜2000 RU.
(§3) Separate test mAbs were captured in flowcells 2, 3 & 4 (flowcell 1 was reference, no test mAb). All 4 flowcells were then blocked by injection with isotype control mAb at 50 ug/ml. All 4 flowcells were then injected with antigen or buffer only (buffer only is for double referencing, done for each mAb pair individually). All 4 flowcells were then injected with 2nd test mAb at 10 ug/ml. All 4 flowcells were then regenerated with glycine, pH1.5.

Test [7] shares this target. The test can be described thus: SPR simultaneous binding; PRLR held by surface mAb Ab49. How it is done:
as §2, §3

B1: Ab39 (antibody, human IgG1, kappa, V domains shown)
VH: EVQLVQSGAEVKKPGSSVKVSCKASGYTFTSYWIHWVRQAPGQGLEWIGEIDPSDSYTNYNQKFKGRATLTVDKSSSTAYMELSSLRSEDTAVYYCARSFFTNWFAYWGQGTLVTVSS
VL: DVVMTQTPLSLSVTPGQPASISCRSSQSLVHSNGNTYLHWYLQKPGQSPQLLIYKVSNRFSGVPDRFSGSGSGTDFTLKISRVEAEDVGVYFCSQSTHVPFTFGGGTKVEIKR
notes: humanized from Ab7; G1; also called Ab4 HC.1a and Ab4 LC.1a
The term Kd denotes the free concentration of one partner at which half of the binding sites on the other are occupied at equilibrium, for simple one-to-one binding. A lower Kd goes with higher affinity. In general, koff refers to the first-order rate constant of dissociation. Low values mean slow dissociation, high ones fast dissociation. Usually kon stands for the rate constant with which the complex forms. A higher kon goes with faster complex formation. With B1, the “Baf3-mPRLR proliferation IC50” value in test [1] is over 30 µg/mL. Besides, the “Baf3-hPRLR proliferation IC50” value in test [2] is 0.27 µg/mL. For the same molecule, the dissociation constant Kd stood at 4.25 nM in test [3], 742 nM in test [4] and 4.01 nM in test [5]. Also, the koff was determined as 0.000715 s⁻¹ in test [3], 0.0427 s⁻¹ in test [4] and 0.000613 s⁻¹ in test [5]. The on-rate (kon) in test [3] turned out to be 168000 M⁻¹ s⁻¹; in test [4], 57600 M⁻¹ s⁻¹; in test [5], 153000 M⁻¹ s⁻¹. Besides, the “solution mAb binding, % of PRLR binding” value in test [6] stood at 0%; in test [7], 2%.

B2: Ab40 (antibody, human IgG1, kappa)
heavy: not shown
light: DVVMTQTPLSLSVTPGQPASISCRSSQSLVHSNGNTYLHWYLQKPGQSPQLLIYKVSNRFSGVPDRFSGSGSGTDFTLKISRVEAEDVGVYYCSQSTHVPFTFGGGTKVEIKRTVAAPSVFIFPPSDEQLKSGTASVVCLLNNFYPREAKVQWKVDNALQSGNSQESVTEQDSKDSTYSLSSTLTLSKADYEKHKVYACEVTHQGLSSPVTKSFNRGEC
notes: humanized from Ab7; G1; also called Ab4 HC.1a and Ab4 LC.1b
For the molecule B2, the “Baf3-mPRLR proliferation IC50” value in test [1] is over 30 µg/mL. Besides, the “Baf3-hPRLR proliferation IC50” value in test [2] was 0.4 µg/mL. The Kd in test [3] was 5.38 nM; in test [4] it was 1190 nM; in test [5], 5.38 nM. The koff is 0.000823 s⁻¹ in test [3], 0.0534 s⁻¹ in test [4] and 0.000719 s⁻¹ in test [5]. Further, the figures for the association rate constant (kon) in test [3], in test [4] and in test [5] were 153000 M⁻¹ s⁻¹, 45000 M⁻¹ s⁻¹ and 134000 M⁻¹ s⁻¹, respectively. For the same molecule, the “solution mAb binding, % of PRLR binding” value in test [6] is -1%; in test [7], 0%.

B3: Ab48 (antibody, human IgG1, kappa, V domains shown)
VH: EVQLVQSGAEVKKPGASVKVSCKASGYTFTDYNIHWVRQAPGQGLEWIGYIYPNNDGTGYNQKFKSRATLTVDNSTSTAYMELRSLRSDDTAVYYCARGDGNYVGDMDYWGQGTTVTVSS
VL: DIQMTQSPSSLSASVGDRVTITCRASENIYSYLAWYQQKPGKPPKLLVYNAKTLAEGVPSRFSGSGSGTDFTLTISSLQPEDFATYYCQHHYATPFTFGQGTKLEIKR
notes: humanized from Ab8; G1; also called Ab3 HC.1a and Ab3 LC.1a
B3: the “Baf3-mPRLR proliferation IC50” value in test [1] was over 30 µg/mL. Further, the “Baf3-hPRLR proliferation IC50” value in test [2] worked out at 0.4 µg/mL. The dissociation constant (Kd) in test [3] worked out at 0.18 nM; in test [4] it was 453 nM; in test [5], 9.77 nM. The off-rate constant (koff) in test [3] came to 9.84e-05 s⁻¹; in test [4] it was 0.0983 s⁻¹; in test [5] it was 0.00563 s⁻¹. Moreover, the kon in test [3] came to 546000 M⁻¹ s⁻¹; in test [4] it was 217000 M⁻¹ s⁻¹; in test [5] it was 576000 M⁻¹ s⁻¹. In addition, the “solution mAb binding, % of PRLR binding” value in test [6] and in test [7] was -2% throughout.

B4: LFA102 (antibody, human IgG1, kappa, V domains shown)
VH: EVQLVESGGGLVQPGGSLRLSCAVSGFTFSSYGMSWVRQAPGKRLEWVATVSSGGTYTYYPDSVKGRFTISRDNSKNTLYLQMNSLRAEDTAMYYCARHRGNYYATYYYAMDYWGQGTLVTVSS
VL: DIVLTQSPDSLAVSLGERATINCKASKSVSTSGYTYMHWYQQKPGQPPKLLIYLASNRESGVPDRFSGSGSGTDFTLTISPVQAEDVATYYCQHSGELPPSFGQGTKLEIKR
notes: humanized IgG1 kappa comparator (WO 2008022295)
B4: the “Baf3-mPRLR proliferation IC50” value in test [1] is over 30 µg/mL. Moreover, the “Baf3-hPRLR proliferation IC50” value in test [2] stood at 0.56 µg/mL. The “T47D pPRLR ELISA IC50” value in test [2] stood at 0.069 µg/mL. For the same molecule, the dissociation constant Kd in test [3] was 1.3 nM; in test [4] it was 26 nM; in test [5], 11 nM. Besides, the koff turned out to be 0.00073 s⁻¹ in test [3], 0.016 s⁻¹ in test [4] and 0.0095 s⁻¹ in test [5]. Also, the kon is 560000 M⁻¹ s⁻¹ in test [3], 620000 M⁻¹ s⁻¹ in test [4] and 880000 M⁻¹ s⁻¹ in test [5]. For the same molecule, the “solution mAb binding, % of PRLR binding” value was found to be 26% in test [6] and 1% in test [7].
